The results in this text go back to patent US20240294644A1 (BLUEFIN BIOMEDICINE, published 2024).

Substitutions are numbered along the chain they refer to.

The chains are these.
T1: human VTCN1 expressed on cells (293-VTCN1 cells; SKBR3, MX-1 and ZR-75-1 cells that express it naturally) (human, UniProt Q7Z7D3 25-282)
T1 construct: The cDNA was bought from Origene
T1 sequence: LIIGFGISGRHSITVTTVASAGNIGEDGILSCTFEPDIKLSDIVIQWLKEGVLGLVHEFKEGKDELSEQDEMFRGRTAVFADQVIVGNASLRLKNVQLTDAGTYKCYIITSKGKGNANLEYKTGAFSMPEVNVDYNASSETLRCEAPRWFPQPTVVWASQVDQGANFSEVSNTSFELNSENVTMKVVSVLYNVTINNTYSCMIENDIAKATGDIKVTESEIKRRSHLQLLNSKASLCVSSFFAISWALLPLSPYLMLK

T2: cynomolgus monkey VTCN1 protein (cynomolgus monkey, UniProt A0A2K5U6P5 25-259)
T2 construct: The construct and its tag are not described; also called cyno VTCN1
T2 sequence: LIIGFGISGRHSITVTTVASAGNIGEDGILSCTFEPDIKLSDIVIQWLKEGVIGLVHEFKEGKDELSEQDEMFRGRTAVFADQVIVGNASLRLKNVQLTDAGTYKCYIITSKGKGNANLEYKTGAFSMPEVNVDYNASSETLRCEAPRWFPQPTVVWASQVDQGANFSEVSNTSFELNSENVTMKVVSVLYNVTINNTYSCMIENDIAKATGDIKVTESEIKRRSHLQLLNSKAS

T3: recombinant human VTCN1-his protein (human, UniProt Q7Z7D3 25-259, limits assumed)
T3 construct: also called human VTCN1 protein; recombinant VTCN1
T3 sequence: T2 sequence with I53L

B1: 7C9 (antibody, V domains shown)
VH: QIQLQESGPGLVQPSQSLSITCTVSGFSLTSYGVQWVRQSPGKGLEWLGVIWSSGSTDYNAAFISRLSISKDNSKSQVFFKMNSLQADDTAIYYCARDITTIVEGFAYWGQGTLVTVSA
VL: NIVMTQSPKSMSMSVGERVTLRCKASENVNTYVSWYQQKPEQSPKLLIYGASNRYTGVPDRFTGSGSATDFTLTISSVQAEDLADYHCGQSYSYPFTFGSGTKLEIK
notes: Recombinant mouse antibody made in CHO cells
B2: 1F8 (antibody, V domains shown)
VH: B1 VH with I2M, Q5K, S40F, P41S, A87P, I92M
VL: IIVMTQSPKSMSMSVGERVTLSCKASENVGTYVSWYQQKPEQSPKLLIYGASNRYTGVPDRFTGSGSATDFTLTISSVQAEDLADYHCGQSYSYPFTFGSGTKLEIKR
notes: Recombinant mouse antibody made in CHO cells; also called 1F8C6
B3: 8G3 (antibody, V domains shown)
VH: B1 VH with Q35H, K75R, A87P, G110A
VL: B1 VL with I2V, R22I, N30G, S91T, T97A
notes: as for B1
B4: 1C3 (antibody, V domains shown)
VH: B1 VH with E6Q, S56N, S68T, S70T, V78I
VL: B1 VL with R22S, N30G, S91T
notes: as for B1
B5: 1A2 (antibody, V domains shown)
VH: B1 VH with I2V, E6Q, Q35H, S54G
VL: B1 VL with R22S, N30G, L83V, A84T, S91T
notes: as for B1
B6: 9H12 (antibody, V domains shown)
VH: B1 VH with S54G, Y108H
VL: B1 VL with R22S, N28K, N30G
notes: as for B1
B7: 7D9 (antibody, V domains shown)
VH: B1 VH with Q5K, S54G, G110A
VL: B1 VL with R22S, N30G, S91T
notes: as for B1
B8: 4B9 (antibody, V domains shown)
VH: B1 VH with Q1E, I2V, Q35H, M82I, N83H, G110A
VL: B1 VL with R22I, N30G, S91T
notes: as for B1
B9: 7G9 (antibody, V domains shown)
VH: B1 VH with I2V, L4M, E46Q, F63V, N73T, A87P, A119S
VL: B1 VL with N1I, R22S, N30G
notes: as for B1
B10: 9H7 (antibody, V domains shown)
VH: QVQLQESGPELVKPGASVKLSCKASGYSFTDYTMHWVKQSPGQGLEWIGWIYPGSGNTMYNDKFKGEATMTADKSSSTTYMQLSSLTSEDSAVYFCARGGDSIITVFPFTYWGQGTLVTVSA
VL: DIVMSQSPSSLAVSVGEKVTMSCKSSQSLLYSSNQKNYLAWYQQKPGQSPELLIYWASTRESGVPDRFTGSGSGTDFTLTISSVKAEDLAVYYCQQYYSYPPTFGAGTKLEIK
notes: as for B1
B11: 3C6 (antibody, V domains shown)
VH: QIQLQESGPELKKPGETVKISCKASGYTFTTTGMQWVQKMPGKGFKWIGWINTHSGEPKYADDFKGRFAFSLETSASTAHLQISNLKNEDTATYFCARTSYWYLDVWGAGTTVTVSS
VL: DIVMTQSQKFMSTSVGDRVSVTCKASQIVGTNIAWYQQKPGQSPKALIYSASYRNSGVPDRFTGSGSGTDFTLTITNVQSEDLAEYFCQQYNSYPLTFGAGTKLEIK
notes: as for B1
B12: 2C2 (antibody, V domains shown)
VH: B11 VH with E6Q, T32A, I48L, H80Y, S84N, F95H, V106I
VL: B11 VL with I28N, I33V, N55C, T76S
notes: as for B1
B13: 7E12 (antibody, V domains shown)
VH: B11 VH with I2V, L4M, Q5K
VL: B11 VL
notes: as for B1
B14: 6D9 (antibody, mouse IgG2a, V domains shown)
VH: B1 VH with E6Q, V37I, I64L, I69F, K81Q, T90S, I99V, Y108H
VL: B1 VL with R22S, N28K, N30G, A80V, S91T
notes: also called 6D9-mIgG2a; murine VTCN1 antibody 6D9
B15: 7F10 (antibody, V domains shown)
VH: B1 VH with I2V, E6Q, V34I, Q35H, A87S, Y93H, V103A
VL: B1 VL with R22S, N30G
notes: as for B1
B16: 3G10 (antibody, V domains shown)
VH: B1 VH with Q5K, Q35H, S54G, S56Y, A61S
VL: B1 VL with N1I, V19I, R22N, N30G, R61H, S91T
notes: as for B1
B17: 5A12 (antibody, V domains shown)
VH: B1 VH with I2V, E6Q, S70N, A87P
VL: B1 VL with N1I, R22S, N30G
notes: as for B1
B18: 4C6 (antibody, V domains shown)
VH: B1 VH with I2M, V34I, Q35H, A87S, Y93H, V103A, A119S
VL: B1 VL with R22S, N30G
notes: as for B1
B19: 6E2 (antibody, V domains shown)
VH: B1 VH with S54G, T100S, Y108H, A119S
VL: B1 VL with R22S, N28K, N30G, S93R
notes: as for B1
B20: 3D11 (antibody, V domains shown)
VH: QVQLQQPGAELVKPGASVKLSCKASGYSFTSYWMNWVKQRPGRGLEWIGRIHPSDSETHYNQNFKSKATLTVDKSSSTAYIQLNSLTSEDSAVYYCARPYYFYGSSPYAMDYWGQGASVTVSS
VL: DVVMTQTPLSLPVSLGDQASISCRSSQSIVHSNGNTYLEWYLQKPGQSPKLLIYKVSNRFSGVPDRFSGSGSGTDFTFKISRVEAEDLGVYYCFQGSHVPYTFGGGTKLEIK
notes: as for B1
B21: 10D1 (antibody, V domains shown)
VH: QVQLQESGPELVKPGASVKLSCKASGYIFTDYTIHWLKQSPGQGLEWIGWIYPGSGHTHYNDKFKGKATMTADKSSTTAYMQLSSLTSEDSAVFFCARGGESITTVFPLAYWGQGTLVTVSA
VL: DIVMSQSPSSLAVSVGEKVTMSCKSSQSLLYSSDQKNYLAWYQQKPGQSPKLLIYWASTWESGVPDRFIGSGSGTDFTLTVSSVKAEDLAVYYCHQYYSYPPTFGAGTKLEIK
notes: as for B1

One assay deals with T1, human VTCN1 expressed on cells …. Put plainly: flow cytometry on live 293-VTCN1 and MX-1 cells, 0.05-10 ug/ml. On the technique in general: Flow cytometry measures light scatter and fluorescence of single cells or particles in a stream.
Consider B1, for which the binding result is given as “binds”. As to B2, the binding result is “binds”.

For B3, the binding result is “binds”. B4: the binding result was “binds”. On to B5, for which the binding result is given as “binds”. Turning to B6, the binding result is listed as “binds”. On the same count and under the same terms, next, B7: “binds”; B8: “binds”.

For the molecule B9, the binding result is “binds”.

In the case of B10, the binding result is reported as “binds”.

In the case of B11, the binding result was “binds”. For the molecule B12, the binding result is given as “binds”. As for B13, the binding result is “binds”.

In a further assay the target is T2, cynomolgus monkey VTCN1 protein. The experiment in a line: BLI (OCTET Red), antibody on Protein A biosensor, cyno VTCN1.
Usually Kd stands for the constant that tells how readily two partners part at equilibrium. Take B14: the Kd is 7 nM. For B15, the Kd worked out at 12 nM.

B16 had an equilibrium dissociation constant (Kd) of 14 nM.

With B17, binding was characterised by a dissociation constant (Kd) of 12 nM. For B18, the dissociation constant (Kd) is 16 nM. On to B19, for which the Kd was 19 nM. In turn, B20 showed a Kd of 2 nM.

For B21, the Kd is 1 nM.

The target in another assay is T3, recombinant human VTCN1-his protein. Put plainly: BLI (OCTET Red), antibody on Protein A biosensor, recombinant VTCN1-his in solution.
In the case of B14, the Kd came out at 2 nM.

As to B15, the dissociation constant Kd amounted to 5 nM. As for B16, the dissociation constant (Kd) is 12 nM. As to B17, the dissociation constant Kd was found to be 4 nM.

Regarding B18, the Kd came to 14 nM. Regarding B19, the Kd came to 8 nM.

Regarding B20, the Kd stood at 6 nM. For the molecule B21, the dissociation constant (Kd) came out at 4 nM.
